According to patent US20160279204A1, “PEPTIDES AND PHARMACEUTICAL COMPOSITIONS FOR USE IN THE TREATMENT BY NASAL ADMINISTRATION OF PATIENTS SUFFERING FROM ANXIETY AND SLEEP DISORDERS” (MAX-PLANCK-GESELLSCHAFT ZUR FÖRDERUNG DER WISSENSCHAFT E.V., priority 2011, published 2016):
“Also recorded” adds a separate entry of the source. No end group written: not given here.

Legend:
[1] = tested on: evoked neuronal activity flow from the dentate gyrus to area CA1; assay: Voltage-sensitive dye imaging (VSDI) in VH slices; set-up: species or system mouse; settings: (R)-SHA 68 10 μM, pretreatment 15 min, NPS 1 μM
Protocol: According to Maggio and Segal (2007) and Fanselow and Dong (2010), VSDI experiments were conducted in the VH. Horizontal brain slices (350 μm-thick) were prepared as described in Refojo et al., 2011 and/or von Wolff et al., 2011). Only the first two slices from the ventral surface of the brain in which the CA1 region was clearly visible were used for the measurements. Staining of slices with the voltage-sensitive dye Di-4-ANEPPS and VSDI were carried out at room temperature (23-25° C.). For staining, slices were kept for 15 min in carbogenated (95% O2/5% CO2) ACSF containing Di-4-ANEPPS (7.5 μg/mL; <0.1% DMSO). The ACSF (pH 7.4) consisted of (in mM): 125 NaCl, 2.5 KCl, 25 NaHCO3, 1.25 NaH2PO4, 2 CaCl2, 1 MgCl2, and 25 glucose. Afterwards, slices were stored for at least 30 min in pure carbogenated ACSF. In the recording chamber, slices were continuously superfused with carbogenated ACSF (3 mL/min flow rate). VSDI and data analysis were performed using the MiCAM02 hard- and software package (BrainVision, Tokyo, Japan). The tandem-lens fluorescence microscope was equipped with the MiCAM02-HR camera and the 2× and 1× lens at the objective and condensing side, respectively. Acquisition settings were: 88×60 pixels frame size, 36.4×40.0 μm pixel size, and 2.2 ms sampling time. To reduce noise, four acquisitions subsequently recorded at intervals of 5 s were averaged. Neuronal activity was evoked by square pulse electrical stimuli (200 μs, 15-20 V) delivered to the dentate gyrus granule cell layer via a custom-made monopolar tungsten electrode (Teflon-insulated to the tip of 75 μm diameter). From recorded signals, the fractional change in fluorescence (ΔF/F) was calculated. For all quantifications, ΔF/F values were spatially and temporally smoothed using a 3×3×3 average filter. VSDI signals presented in images were smoothed with a 5×5×3 average filter. Pixelation of images was reduced by the interpolation function of the MiCAM02 software. […]

[2] = tested on: NPS target cells in the murine brain; settings: mouse, in vivo
Protocol: The mice were sacrificed 30 min post-injection.
Immunohistochemistry was performed on free-floating cryosections (40 μm).

brain target neurons = settings: mouse, in vivo, 4 h
Protocol: For intranasal application, the anesthetised mice were placed in a supine position, with the head supported at a 450 angle to the body as reported elsewhere (van den Berg et al., 2002). […] The mice were sacrificed at 15 min, 30 min and 4 hrs after the first application.
Brains were removed, post-fixed in 4% formaldehyde and cryoprotected in 20% sucrose, then shock-frozen in methylbutane. Immunohistochemistry was performed on free-floating cryosections (40 μm). The primary antibodies used were specific for neurofilament (1:1000; Abcam, Cambridge, UK) and GFAP (1:250; DAKO, Glostrup, Denmark). The secondary antibodies used were specific for mouse (Alexa 488 goat anti-mouse IgG) and rabbit (Alexa 488 donkey anti-rabbit IgG) (1:300; Invitrogen, Leek, The Netherlands). The sections were counterstained with DAPI (200 ng/ml; Carl Roth, Karlsruhe, Germany) and mounted with a fluorescence-preserving mounting medium (Shandon Immu-Mount, Thermo Scientific, Waltham, Mass., USA).
After acquisition, the images were processed using Photoshop and Illustrator (Adobe, San Jose, Calif., USA).

ventral hippocampus (VH) = assay: Spread of Cy3-NPS after microinjection into area CA1 of the VH; format: in vivo, mouse; settings: 0.07 nmol unilaterally into CA1 of VH, 30 min after injection
Protocol: Animals were fixed in a stereotactic frame and maintained under isoflurane anesthesia (Forene® 100%, V/V; induction: 2.5%; maintenance: 1.5%; in O2; flow rate: 1 L/min). The mice received acute analgesic treatment with Metacam s.c. during surgery (0.5 mg/kg; in NaCl). 23 gauge stainless-steel guide cannulas were implanted in the CA1 region of the VH at the following coordinates: 3.1 mm posterior, ±3 mm lateral from bregma, and 2 mm ventral from the skull surface (Franklin and Paxinos, 2007). The guide cannulas were fixed with two screws and a two-component adhesive. For behavioural experiments, animals were implanted bilaterally for later bilateral injection, whereas for Cy3-NPS injections, implantation was performed unilaterally. The animals were allowed to recover for at least 6 days before starting the behavioural experiments. Substance infusions were carried out manually, on mice anesthetised by brief inhalation of isoflurane, using a 30 gauge injection cannula connected to a Tygon tube and a 10 μL Hamilton syringe. After infusion, the injection cannula was kept in place for additional 30 s to prevent substance outflow.
Cy3-NPS was administered unilaterally at a concentration of 0.07 nmol in a volume of 0.7 μL ACSF. […] After mounting with a fluorescence-preserving medium (Shandon Immu-Mount, Thermo Scientific, Bonn, Germany), sections were stored at 4° C.

EGFP-NPSR = assay: Cy3-NPS uptake in HEK cells transiently transfected with EGFP-NPSR; format: cell-based
Excerpt: In view of the fact that the NPSR is reported to be the only receptor mediating NPS effects (Duangdao et al., 2009) it may be concluded that the intracellular uptake of Cy3-NPS observed here also in vivo (FIGS. 1A-1D and FIG. 7A) likewise depends on the NPSR.

[3] = tested on: evoked neuronal activity flow from the dentate gyrus to area CA1; settings: Refojo et al., 2011, von Wolff et al.; cited from earlier work

Q: Which “effect of NPSR antagonist on the NPS effect” value [1] does the source give for `O=C(NCc1ccc(F)cc1)N1CCN2C(=O)OC(c3ccccc3)(c3ccccc3)[C@H]2C1` [(R)-SHA 68, reference compound] here?
A: The value was “completely abolished”.

Q: With “Cy3-NPS: fluorescent NPS-conjugate (Cy3-NPS), Phoenix Pharmaceuticals (SFRNGVGTGMKKTSFQRAKS; also: Cy3 label, place not given here; UniProt P0C0P6 70-89, looked up)” as the compound, how does the “cellular fluorescence after ICV injection” value [2] read?
A: The value was “single cells already exhibited distinct patterns of fluorescence”.

Q: What about the “co-localisation with neurofilament (NF) and GFAP markers” value [2] of the same compound?
A: The value was “co-localised exclusively with the neuronal marker”.

Q: What about the “subcellular localisation in target cells” value [2] of the same compound?
A: Its value is “found in the cytosol and throughout the processes of target cells”.

Q: And the “remaining Cy3-NPS after intranasal application” value (brain target neurons)?
A: Its value is “almost all traces of Cy3-NPS disappeared”.

Q: What about the “spread of injected Cy3-NPS” value (ventral hippocampus (VH)) of the same compound?
A: The value was “remained locally restricted to the VH and accumulated in single cells of the hippocampal pyramidal, radiate, and oriens layers; also recorded: locally restricted to the site of injection”.

Q: What about the “uptake in nuclei of the amygdala” value (ventral hippocampus (VH)) of the same compound?
A: Its value is “not observed”.

Q: What about the “internalisation in HEK cells transfected with EGFP-NPSR” value (EGFP-NPSR; 10 min of incubation with Cy3-NPS) of the same compound?
A: Its value is “the receptor-ligand complex was internalised and subsequently accumulated in cytoplasmic and perinuclear vesicular structures”.

Q: And the “uptake in HEK cells transfected with empty EGFP-expression plasmid” value (EGFP-NPSR; control cells without NPSR)?
A: Its value is “did not take up Cy3-NPS molecules”.

Q: For “corticotropin-releasing hormone (SEEPPISLDLTFHLLREVLEMARAEQLAQQAHSNRKLMEII; ends and bridges not checked; UniProt P06850 154-194, looked up) [corticotropin-releasing hormone (CRH), anxiogenic neuropeptide]”, which “activity flow from the dentate gyrus to area CA1” value [3] is on record?
A: The value was “enhances this activity flow”.
